Measured values reported in patent US20260193377A1 (FULL LIFE TECHNOLOGIES HK, published 2026).
Positions count from the first letter of the chain named.

B1: anti-GCC single domain antibody SEQ ID NO. 8 (VHH)
VHH: EVDLVESGGGLVQPGGSLRLSCGASGFTFSHYAMSWVRQAPGKALEWVSDISSGGGITKYADSVKGRFTISRDDAQNTLYLQMNSLKPEDTAVYYCAKASAIGYLAYWMRNPVEYDTRGQGTLVTVSS
notes: Alpaca-derived sdAb
B2: anti-GCC single domain antibody SEQ ID NO. 4 (VHH)
VHH: QSQLVESGGGLVQPGGSLRLSCAASGSTLDHYATAWFRRAPGKEREGISYISSGGGSTYYVDSVKGRFTISRDNAKRTVYLQMNSLKPEDTAVYFCASKRRFNTGWSEPSDYNVWGQGTQVTVTS
notes: Alpaca-derived sdAb
B3: anti-GCC single domain antibody SEQ ID NO. 6 (VHH)
VHH: QVQVVESGGGLVQAGGSLRLSCAASGRAFSSYAMGWFRQAPGKQRELVAVITSGGSTNYADSVKGRFTISRDNAKNTVYLQMNSLKPEDTAVYYCAAGTGYGGGFLIGYDYWGQGTQVTVSS
notes: Alpaca-derived sdAb
B4: anti-GCC single domain antibody SEQ ID NO. 7 (VHH)
VHH: QVQLVESGGGLVQPGGSLRLSCAASGSRFMTSSMGWYRQTPGKQREWVATATSSDSTLYADAVKGRFTISRDNAKNTVYLQMNSLKPQDTAVYYCFTTPPTFWGHGTQVTVSS
notes: Alpaca-derived sdAb
B5: anti-GCC single domain antibody SEQ ID NO. 9 (VHH)
VHH: QKQLVESGGGLVQPGGSLRLSCAASGETLSNYNIGWFRQAPGKEREGVSCISQIGFTNYADSVKGRFTLFRASAENTVYLQMNSLKPEDTAVYYCAVTGGRWASCSFLPLRQDFESWGQGTLVTVSS
notes: Alpaca-derived sdAb
B6: anti-GCC single domain antibody SEQ ID NO. 1 (VHH)
VHH: QVQLVESGGGLVQAGGSLRLSCTGSARPFSNYGMGWFRQAPGKEREFVAAISGGGVYTDFADAVKGRFTISRDNAKNTVYLQMNSLKPEDTAVYYCARARTARVVSRRHEYDYWGQGTQVTVSS
notes: Alpaca-derived sdAb
B7: anti-GCC single domain antibody SEQ ID NO. 3 (VHH)
VHH: B6 VHH with L4F, G24A, A26G, R27G, P28I, A63S, N74R, V104L, V105T, E110D
notes: Alpaca-derived sdAb
B8: anti-GCC single domain antibody SEQ ID NO. 2 (VHH)
VHH: B6 VHH with G24A, A26G, R27G, P28T, S30V, T58R, A63S, V93L, A102P, S106N
notes: Alpaca-derived sdAb
B9: anti-GCC single domain antibody SEQ ID NO. 5 (VHH)
VHH: AVQLVESGGGLVQPGGSLRLSCAASGSTISINVMGWYRQAPGKQRDLVAAISSVGSTYYADSVKGRFTISRDNAKNTVYLQMNSLKPEDTAVYYCNAKSLISDYWGQGTQVTVSS
notes: Alpaca-derived sdAb
B10: anti-GCC single domain antibody SEQ ID NO. 10 (VHH)
VHH: AVQLVESGGGMVQPGGSLRLSCAASGFTFGAYDMTWVRQAPGKGAEWVSAINSGGDRTYYTDSVKGRFTISRDNAKNTLYLQMNSLKPADTAKYYCGTKIPQFLRGQGTQVTVSS
notes: Alpaca-derived sdAb
B11: humanized anti-GCC single domain antibody SEQ ID NO. 112 (VHH)
VHH: B1 VHH with D3Q, G23A, K59Y, D74N, A75S, Q76K, K87R, P88A
notes: 8
B12: humanized anti-GCC single domain antibody SEQ ID NO. 113 (VHH)
VHH: B1 VHH with D3Q, D74N, A75S, Q76K, K87R, P88A
notes: 8
B13: humanized anti-GCC single domain antibody SEQ ID NO. 114 (VHH)
VHH: B1 VHH with E1Q, D3Q, G23A, K59Y, K65A, D74N, A75S, Q76R, K87R, P88A
notes: 8
B14: humanized anti-GCC single domain antibody SEQ ID NO. 96 (VHH)
VHH: B2 VHH with V61A, A75S, R77N, V79L, K87R, P88A, F95Y
notes: 4
B15: humanized anti-GCC single domain antibody SEQ ID NO. 97 (VHH)
VHH: B2 VHH with A75S, R77N, V79L, K87R, P88A
notes: 4
B16: humanized anti-GCC single domain antibody SEQ ID NO. 116 (VHH)
VHH: QVQLVESGGGLVKPGGSLRLSCAASGETLSNYNIGWFRQAPGKEREGVSCISQIGFTNYADSVKGRFTISRDNAKNSLYLQMNSLRAEDTAVYYCAVTGGRWASCSFLPLRQDFESWGQGTLVTVSS
notes: 9
B17: humanized anti-GCC single domain antibody SEQ ID NO. 83 (VHH)
VHH: EVQLVESGGGLVQPGGSLRLSCAASARPFSNYGMGWFRQAPGKEREFVAAISGGGVYTYYADSVKGRFTISRDNSKNTLYLQMNSLRAEDTAVYYCARARTARVVSRRHEYDYWGQGTQVTVSS
notes: 1
B18: humanized anti-GCC single domain antibody SEQ ID NO. 94 (VHH)
VHH: B17 VHH with A26G, R27G, P28I, K76R, V104L, V105T, E110D
notes: 3
B19: humanized anti-GCC single domain antibody SEQ ID NO. 88 (VHH)
VHH: B17 VHH with A26G, R27G, P28T, S30V, T58R, A102P, S106N
notes: 2
B20: humanized anti-GCC single domain antibody SEQ ID NO. 92 (VHH)
VHH: B17 VHH with A26G, R27G, P28I, V104L, V105T, E110D
notes: 3
B21: humanized anti-GCC single domain antibody SEQ ID NO. 85 (VHH)
VHH: B17 VHH with K76R
notes: 1
B22: humanized anti-GCC single domain antibody SEQ ID NO. 107 (VHH)
VHH: B4 VHH with Q1E, A62S, T77S, V78L, K86R, P87A, Q88E
notes: 7
B23: humanized anti-GCC single domain antibody SEQ ID NO. 109 (VHH)
VHH: B4 VHH with Q1E, K43N, A62S, T77S, V78L, K86R, P87A, Q88E
notes: 7
B24: humanized anti-GCC single domain antibody SEQ ID NO. 110 (VHH)
VHH: B4 VHH with Q1E, K43N, Q44G, A62S, T77S, V78L, K86R, P87A, Q88E
notes: 7
B25: humanized anti-GCC single domain antibody SEQ ID NO. 108 (VHH)
VHH: B4 VHH with Q1E, A62S, K75R, T77S, V78L, K86R, P87A, Q88E
notes: 7
B26: humanized anti-GCC single domain antibody SEQ ID NO. 86 (VHH)
VHH: B17 VHH with A23T, A24G, K43N, Y59D, Y60F
notes: 1
B27: humanized anti-GCC single domain antibody SEQ ID NO. 100 (VHH)
VHH: B9 VHH with A74S, V78L, K86R, P87A
notes: 5
B28: humanized anti-GCC single domain antibody SEQ ID NO. 101 (VHH)
VHH: B9 VHH with K64A, A74S, K75R, V78L, K86R, P87A
notes: 5

molecular target: T1, Human GUCY2C (captured on anti-human Fc capturing antibody, SPR) (human); test: SPR (Biacore T200), human GUCY2C captured via anti-human Fc, sdAb as analyte, 1:1 fit
T1 construct: also called human GCC; guanylyl cyclase C
Method: (§1) Anti-GCC sdAbs were diluted with 1×HBS-EP buffer. Human GUCY2C was captured on anti-human Fc capturing Ab-immobilized sCM5 chip. Then anti-GCC sdAb samples were injected with a flow rate of 10 μl/min for 180 sec, followed by dissociation for 800 sec. The binding curves were locally fitted with Biacore® T200 analysis software (BIAevaluation) using a 1:1 Langmuir binding model.

T1 sequence (P25092 24-430): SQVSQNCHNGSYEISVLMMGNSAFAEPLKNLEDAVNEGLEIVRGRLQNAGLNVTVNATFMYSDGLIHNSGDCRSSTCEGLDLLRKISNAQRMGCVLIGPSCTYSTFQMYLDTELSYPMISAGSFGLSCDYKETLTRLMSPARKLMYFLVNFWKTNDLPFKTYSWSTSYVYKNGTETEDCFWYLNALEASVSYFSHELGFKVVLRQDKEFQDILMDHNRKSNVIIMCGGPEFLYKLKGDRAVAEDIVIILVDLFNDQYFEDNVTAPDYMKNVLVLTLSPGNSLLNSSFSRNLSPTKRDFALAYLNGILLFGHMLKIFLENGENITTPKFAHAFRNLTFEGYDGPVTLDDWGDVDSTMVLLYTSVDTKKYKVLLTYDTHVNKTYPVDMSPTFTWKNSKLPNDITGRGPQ

Binder | Kd | koff | kon
B1 | 25.9 pM | 6.7e-05 s⁻¹ | 2.59e+06 M⁻¹ s⁻¹
B2 | 414 pM | 0.000149 s⁻¹ | 359000 M⁻¹ s⁻¹
B3 | 753 pM | 0.000172 s⁻¹ | 228000 M⁻¹ s⁻¹
B4 | 2530 pM | 0.000395 s⁻¹ | 156000 M⁻¹ s⁻¹
B5 | 116 pM | 0.00103 s⁻¹ | 8.84e+06 M⁻¹ s⁻¹
B6 | 560 pM | 0.0002 s⁻¹ | 357000 M⁻¹ s⁻¹
B7 | 218 pM | 0.00018 s⁻¹ | 827000 M⁻¹ s⁻¹
B8 | 75.9 pM | 4.67e-05 s⁻¹ | 615000 M⁻¹ s⁻¹
B9 | 431 pM | 0.000142 s⁻¹ | 330000 M⁻¹ s⁻¹
B10 | 427 pM | 0.000702 s⁻¹ | 1.64e+06 M⁻¹ s⁻¹

molecular target: T1, Human GUCY2C (captured on anti-human Fc …); test: SPR (Biacore T200), human GUCY2C captured via anti-human Fc, humanized sdAb as analyte, 1:1 fit
Method: as §1, with “Exemplary humanized anti-GCC” for “Anti-GCC”, “sdAbs of the present application” for “sdAbs”, “Then the humanized” for “Then”

Binder | Kd | koff | kon
B11 | 118000 pM | 0.00462 s⁻¹ | 39100 M⁻¹ s⁻¹
B12 | 1290 pM | 0.00277 s⁻¹ | 2.15e+06 M⁻¹ s⁻¹
B13 | 195000 pM | 0.0044 s⁻¹ | 22600 M⁻¹ s⁻¹
B14 | 1740 pM | 0.000143 s⁻¹ | 82600 M⁻¹ s⁻¹
B15 | 3680 pM | 0.000226 s⁻¹ | 61300 M⁻¹ s⁻¹
B16 | 15400 pM | 0.0636 s⁻¹ | 4.14e+06 M⁻¹ s⁻¹
B17 | 115 pM | 0.000177 s⁻¹ | 1.53e+06 M⁻¹ s⁻¹
B18 | 425 pM | 0.000633 s⁻¹ | 1.49e+06 M⁻¹ s⁻¹
B19 | 155 pM | 0.000337 s⁻¹ | 2.17e+06 M⁻¹ s⁻¹
B20 | 759 pM | 0.000788 s⁻¹ | 1.04e+06 M⁻¹ s⁻¹
B21 | 187 pM | 0.000309 s⁻¹ | 1.66e+06 M⁻¹ s⁻¹
B22 | 2030 pM | 0.000531 s⁻¹ | 261000 M⁻¹ s⁻¹
B23 | 11800 pM | 0.00213 s⁻¹ | 181000 M⁻¹ s⁻¹
B24 | 54600 pM | 0.01 s⁻¹ | 183000 M⁻¹ s⁻¹
B25 | 2370 pM | 0.000546 s⁻¹ | 231000 M⁻¹ s⁻¹
B26 | 235 pM | 0.000181 s⁻¹ | 768000 M⁻¹ s⁻¹
B27 | 324 pM | 0.000191 s⁻¹ | 591000 M⁻¹ s⁻¹
B28 | 574 pM | 0.000218 s⁻¹ | 380000 M⁻¹ s⁻¹

molecular target: T2, GCC expressed on T84 cells (UniProt P25092 24-1073, limits assumed); test: flow cytometry on T84 cells expressing GCC, 300 nm [sic], PE-anti human Fc secondary; Blank 30.7
T2 construct: whole, on cells; also called guanylyl cyclase C; GUCY2C
Method: T84 cells expressing GCC were used to evaluate the binding affinity of the anti-GCC sdAbs. Briefly, 50 μL T84 cells at density of 3×10⁶ cells/mL were incubated with 50 μL anti-GCC sdAbs at 4° C. for 2 hours. After incubation, the cells were washed three times with 400 μL FACS buffer, resuspended with PE-anti human Fc 2nd antibody (eBioscience 12-4998-82, 1:1000 dilution) and incubated at 4° C. for 60 min. Then the cells were collected and subject to FACS analysis.

T2 sequence (P25092 24-1073 limits assumed): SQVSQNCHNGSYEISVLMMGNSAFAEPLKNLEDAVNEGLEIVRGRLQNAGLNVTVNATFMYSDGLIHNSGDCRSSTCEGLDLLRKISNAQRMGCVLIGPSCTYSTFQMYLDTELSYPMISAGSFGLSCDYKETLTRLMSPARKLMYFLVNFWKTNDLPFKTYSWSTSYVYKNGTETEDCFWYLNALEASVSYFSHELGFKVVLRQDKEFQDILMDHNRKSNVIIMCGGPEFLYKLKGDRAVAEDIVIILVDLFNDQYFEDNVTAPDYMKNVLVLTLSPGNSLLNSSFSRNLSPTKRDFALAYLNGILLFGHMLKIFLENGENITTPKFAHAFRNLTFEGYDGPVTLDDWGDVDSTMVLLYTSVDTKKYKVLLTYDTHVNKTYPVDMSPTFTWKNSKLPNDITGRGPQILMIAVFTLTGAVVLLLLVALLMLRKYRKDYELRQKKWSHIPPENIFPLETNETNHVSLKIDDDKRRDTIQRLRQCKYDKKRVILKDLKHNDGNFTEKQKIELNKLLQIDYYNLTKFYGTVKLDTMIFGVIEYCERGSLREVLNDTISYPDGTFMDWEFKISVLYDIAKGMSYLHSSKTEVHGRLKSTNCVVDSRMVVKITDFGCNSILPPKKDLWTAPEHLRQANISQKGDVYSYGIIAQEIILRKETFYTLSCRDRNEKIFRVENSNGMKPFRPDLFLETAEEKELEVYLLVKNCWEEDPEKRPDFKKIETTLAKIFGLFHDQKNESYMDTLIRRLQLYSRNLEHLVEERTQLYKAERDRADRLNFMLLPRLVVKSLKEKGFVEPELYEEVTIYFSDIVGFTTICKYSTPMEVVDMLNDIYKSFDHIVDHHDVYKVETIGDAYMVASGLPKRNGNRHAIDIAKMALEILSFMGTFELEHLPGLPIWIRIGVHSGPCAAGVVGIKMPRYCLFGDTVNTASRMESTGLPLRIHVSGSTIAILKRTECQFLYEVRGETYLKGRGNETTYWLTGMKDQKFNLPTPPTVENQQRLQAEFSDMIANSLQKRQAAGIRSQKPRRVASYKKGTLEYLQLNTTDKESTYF

Binder | Geometric mean MFI
B1 | 669
B3 | 298
B4 | 268
B5 | 447
B6 | 790
B7 | 910
B8 | 721
B9 | 371
